In paper PMC3032424:

Target: mouse hemoglobin (mouse) (UniProt P01942)
Assay: BLI

**Q.** With “recombinant IsdB (from UniProt A6QG30 41-613) (receptor)” as the substance, how does the Kd read?
**A.** Its Kd is 980 nM.
